Data published in doi:10.1101/750265.

Molecular target: dominant negative RACB-T20N, split-YFP fusion for BiFC (barley (Hordeum vulgare))
Assay: split reporter

RIPb, full length, split-YFP fusion for BiFC (natural protein)
BiFC signal relative to that with CA RACB: < 10%
